test: yeast display, Sf9 membrane polyspecificity reagent, FACS + sequencing; frameworks hold sequencing errors
Summary of the method: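 Nanobodies from a synthetic yeast display library (Saccharomyces cerevisiae BJ5465), induced 36–48 hours with galactose, were stained 1 hour at 4 °C with 10% biotinylated, detergent-solubilized Sf9 membrane reagent, enriched on streptavidin microbeads, then FACS-sorted. Anti-HA (expression) and streptavidin (reagent binding) fluorescence set low and high (top ~1%) gates. Polyreactivity labels come from the gate of origin. Genes were colony-PCR amplified, MiSeq 2 × 250 sequenced and filtered by CDR length.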

Row | Sequence | polyreactivity (PSR sort gate)
1 | QVQLVESGGGLVQAGGSLRLSCAASGITFDRYAMGWYRQAPGKERELVAAITTRGTRTYADSVKGRFTISRDNAKNTVYLQMNSLKPEDTAVYYCAATSYRLTYAWPYYYWGQGTQVTVSS | high polyreactivity
2 | QVQLVESGGGLVQAGGSLRLSCAASGIIFTYAIGWYRQAPGKERELVAAIDWRGGRTYYADSVKGRFTISRDNAKNTVYLHMNSLKREDTAVYYCGARLGGGTYYWGQGTQVTVSS | high polyreactivity
3 | QVQLVESGGGLVQAGGSLRLSCAASGYIFWENAMGWYRQAPGKERELVAAITVSGGGTYYADSVKGRFTISRDNAKNSVYLQMNSLKPEVTAVYYCNVYDKAPAYDYWGQGTQVTVSS | low polyreactivity
4 | QDQLVESGGGLVQAGGSLRLSCAASGLTFRKNAMGWSRQAPGKERELVAAISTGGRTYYADSVKGRFTISRDNAKNTVYLQMNSLKPEDTAVYYCNTVYVKSGLDYWGQGTQVTVSS | high polyreactivity
5 | QVQLVESGGGLVQAGGSLRLSCAASGSIFDVNAMGWYRQAPGKESELVAAISDSGGSTYYADSVKGRFTISRDNAKTTVYLQMTSLKQEDTAVYYCNADWSWYNYYDFDYWGQGTQVTVSS | low polyreactivity
6 | QVQLVESGGGLVQAGGSLRLSCAASGSTFWYYVMGWYRQAPGKERELVAAISTRGDSTYYADSVKGRFTISRDNAKITVYFQMNSLKPEDTAVFDCAKSRQYSGRVRFDYWGKGTQVTVSS | low polyreactivity
7 | QVQLVESGGGLVQAGGSLRLSCAASGSFGFYVMGWYRQAPGKERELVSAISSVGSTNYADSVKGRFTISRDNAKNTVYFQMNSLKPEDTAVYYCARRYWYPDAFYRYDYWGQGTQVTVSS | low polyreactivity
8 | QVQLVESGGGLVQAGGSLRLICAASGSIFLFNAMGWYRQAPGKERQLVAAISKSGGSTHYADSVKGRFTISRDNAKNTVYLQMNSLKPEDSAVYYCAARVGDLGSQKTDSVYRVYYWGQGTQVTVSS | low polyreactivity
9 | QVQLVESGGGLVQAGGSLRLTCAASASIFGHNTMGWNREAPGKERELVAAISVSGTRTYYADSVKGRFTISRVNAKNTVYLQMNSLKPEDTAVYYCAAEISRVRQGVAWSYKYEYWGQGTQVTVSS | high polyreactivity
10 | QVQIVESGRGLVQAGGSLRLSCAASGRIFYNDLMGWYRQAPGKERELVASISTGGTTYYSDSVKGRFTISRDNAKNTVYLQMNSLKPEDTAVYYCNAGLFYAPPFYTMDYWGQGTQVTVSS | low polyreactivity
11 | QVQLVESGGGLVQAGGSLRLSCAASGRIFKRNVMGWYRQAPGKERELVAAIRYSGGNTYYADSVKGRFTISRDNAKNTVYLQMNSLKPEDTAVYYCAAQQWSYTQSRLYDMGYWGQGTQVTVSS | high polyreactivity
12 | QVQLVESGGGLVQAGGSLRLICAASGSTFGDYDMGWYRQAPGKETELVAAISNGGSTYYADSVKGRFTISRDYAKNTVYLQMNSLKREETAVYYCNADNVEIRSTYEYGRYLYGYWGQGTQVTVSS | low polyreactivity
13 | QVQLVESGGGLVQAGGTLRLSCAASGSIFGNNLMGWYRQAPGKERELVAAISWSGGKNYADSVKGRFTISRDNAKNTVYLEMHCLIPDDSAVYYCAALSVWSYYTYYYWGQGTQVTVSS | high polyreactivity
14 | QVQLVESGGGLVQAGGSLRLSCAASGGTFQRYVMGWYRQAPGKERELVAAISRSGSTYADSVKGRFTISRDNAKNTVYLQMNSLKPEDTAVYYCNVVRYYRYYLHGYDYWGQGTQVTVSS | high polyreactivity
15 | QVQLVESGGGLVQAGGSLRLSCAASGIIRHNAMGCYRPAPGKERELVAGISRRGGSTYYADSVKGRFTISRDNAKNTVYLQMNSLKPEDTAVYYCNARSAGSDLDYWGQGTQVTVSS | high polyreactivity
16 | QVQLVESGGGLVQAGGSLRLSCAASGITFLFYVMGRYRQERGKERELVSTINSDDTTYYADSVKGRFTISRDNAKNTVYLQMNCLKPEDTAVYYCAADTWLWYGFDHWGQGTQVTVSS | high polyreactivity
17 | QVQLVESGGGLVQAGGSLRLSCAASGSIFRRNSMGWYRPAPGKERELVAAISSIGSSTYYADSVKGRFTISRDNAKNTVYLQMNSLKPEDTAVYYCAALYVQGSHTYGYWGQGTQVTVSS | high polyreactivity
18 | QVQLEDSLGGLVQAGGSLRLSCAASGGIFGLYDMGWYRQEPGKERELVAAISWSGGDTYYADSVKGRFTISRDNAKNTVYLQMNSLKPEDTAVYYCAADTYYYSGYEYDYWGQGTQVTVSS | high polyreactivity
19 | QVQLVETGGGLVQAGGSLRVSCAASGSIFVGYPMGWYRQAPGKERELVAAISSNGGSTYYADSVKGRFTISRDNAKNTVYVQMNSLKPEDTAVYYCAAGVRRVYASGHGAYGYWGQGTQVTVSS | low polyreactivity
20 | QVQLVESGGGLVQAGGSLRLSCAASGSILQRNAMGWYRQAPGKERELVAAISWSGDNTYYADSVKGRFTISRDNAKNTVYLQMNSLKPEDTAVYYCATDADIYFQEYDYWGQGTQVTVSS | low polyreactivity
21 | QVQLVESGGGLVQAGGSLRLSCAASGSTFFHYVMGWYRQAPGKERELVAAIRWSGGRTRYADSVKGRFTISRDNAKNTVYLQMNSLKPEDTAVYYCAAYRLSKPFYKYDYWGQGTQVTVSS | high polyreactivity
22 | QVQLVESGGGLVQAGGSLRLSSAASGSIFRSYTMGWYRQAPGKERELVAAISGRAGSTYYADAVKGRVTISRDNAKNTVYLQMNSLKPEDTAVYYCAVKLGGRSQSYYWGQGTQVTVSS | high polyreactivity
23 | QVQLVESGGGLVQAGGSLRLSCAASGRTFGRNAMGWYRQAPGKERELVAAISYGGGSTYYADSVKGRFTISRDNAKNTVYLQMNSLKPEDTAVYYCAAPTDDSSLGVYKHGYWGQCTQVTVSS | low polyreactivity
24 | QVQLVESGGGLVQAGGSLRLICSASGSIFPQYAMVSYRPEPGKERALFAAISYSGGRSYYADSVKGRFTISRDIAKNTVYLQMNSLKTEYTGVYYWAARVKRGIPTYGKCYYAFGDWGQGTQVTVSS | high polyreactivity
25 | QVQLVESGGGLVQAGGSLRLSCAASGRIFFYYAMGWYRQAPGKERELVATISYSGGCTYYADSVKGRFTISRDNAKNTVYLQMNSLKPEETAVYYCNARWGTPYYIQDFDYWGQGTQVTVSS | low polyreactivity
26 | QVQLVESGGGLVQAGGSLRLSCAASGFTFKSYAMGWSRQAPGKERELVAAISRGGSTYYADSVKGRFTISRDNAKNTVYLQMNSLKPEDTAVYYCNKTRYSRSYYEYDYWGQGTQVTVSS | low polyreactivity
27 | QVQLVESGGGLVQAGGSLRLSCAASGIISSVYAMGWSRQAPGKERELVAAISGSGGSTYYADSVKGRFTISRDNAKNTVYLQMNSLKPEDTAVYYCAKGYQYQGNSYGYWGQGTQVTVSS | low polyreactivity
28 | QVQLLESGGGIVQAGGSLRLSCAASGRINAMGWYRQAPGKERELVAVITLRGGSTYYADSVKGRFTISRDNAKNTVYLQMNSLKPEYTAVYYCAAVYRWPDAKYDYWGQGTQVSVSS | low polyreactivity
29 | QVQLVESGGGLVQAGGSLRLSCAASGLIFVGYAMGWYRQSPGKERELVAAITSGGSTKYADSVKGRVTISRDNAKNTDYLQMNSLKPEDTAVYYCADSGCRNWWSARNYYWGQGTQVTVSS | low polyreactivity
30 | QVQLVESGGGIVQAGGSLRLSCAASGRTFYRNAMGWYRPAPGKERELFAVISLNGGRTYYADSVKGRFTISRDNAKNTVYLQMNSLKPEDTAVYYCNKLTGPVFTRGFYYWGQGTQVTVSS | high polyreactivity

Reference: the nanobody polyreactivity screen of Harvey et al. (2022)
